Source: publication doi:10.1101/2024.12.23.630039 (2024)
Read-outs that look alike come from different tables or passages of the source.

How the values were obtained:
[1] = molecular target: T1, HLA-B*07:02 heavy chain with β2-microglobulin (MHC-I monomer, peptide groove as the binding site) (human | ); assay: predicted/cited value [23]
[2] = molecular target: T1, HLA-B*07:02 heavy chain with …

Binder	Kd [1]	Kd [2]
RKELVRPAL [temperature-sensitive template peptide for HLA-B*07:02 (RKELVRPAL)]	4120 nM	–
RPELVRPAL [high-affinity peptide for HLA-B*07:02 (Table 1)]	–	4.38 nM
